In the supplement of paper PMC10126150:
± gives the standard deviation of the averaged measurements.
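Further: ATP exposure 15 min at 22 °C before imaging.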

These sequences were tested on ATP (assay: switch fluorescence ratio, 500 uM ATP over buffer (Cy3 cluster intensity, sum of 5 cycles each) (fold (ratio)); higher = stronger signal-on switching upon ATP binding; sequences stand for … in TCGTCGGCAGCGTCAGATGTGTATAAGAGACAGTTTTTTTTTTTTTTTTTTTTTTTTT…TC). Details: aptamer strand: ATP DNA aptamer (quencher-CACCTGGGGGAGTATTGCGGAGGAAGG + anchor), 100 nM annealed; ATP concentration: 500 uM.
Procedure, shortened: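 After annealing to 100 nM quencher-labelled ATP aptamer, Cy3-labelled switching-strand clusters on a modified Illumina MiSeq flow-cell were imaged in selection buffer. A second image followed after 15 min with 500 uM ATP at 22 °C, and five such buffer/ATP cycles were done, each separated by NaOH stripping and re-annealing. The fluorescence ratio, averaged per switch-domain sequence, is summed target-cycle over summed buffer-cycle Cy3 intensity per cluster, with clusters outside 100-1000 RFU excluded.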
In the case of AATGAAGTCC, the switch fluorescence ratio is reported as 1.054 ± 0.0038. CGGGGGTCAA was tested, and the switch fluorescence ratio was 0.99 ± 0.011. Sequence TAGTTTTGGG has a switch fluorescence ratio of 0.9807 ± 0.0026. Work on TTGCATGGGT yielded a switch fluorescence ratio of 1.01 ± 0.039. TTATGTCTTG was tested, and the switch fluorescence ratio was 1.01 ± 0.019. Sequence GATTTTAGTA has a switch fluorescence ratio of 1.01 ± 0.033. Sequence TGGGGTGGCA has a switch fluorescence ratio of 1.01 ± 0.045. GATGGAAAAA showed a switch fluorescence ratio of 1.04 ± 0.012. With AGCTTTAGTT the switch fluorescence ratio was 1.008 ± 0.0019. Sequence TCAAAGTTTT has a switch fluorescence ratio of 1.01 ± 0.023. ATAGAGGGGT was tested, and the switch fluorescence ratio was 1.01 ± 0.023. With TCACGGGGGC the switch fluorescence ratio was 0.976 ± 0.061. CAGTTACGAT gave a switch fluorescence ratio of 1.03 ± 0.032. Work on AAGTTGGTGG yielded a switch fluorescence ratio of 0.987 ± 0.033. In the case of GCATCTCAGC, the switch fluorescence ratio is reported as 0.991 ± 0.038. CTAACTGCAT was tested, and the switch fluorescence ratio was 1.18 ± 0.031. GACTGCATCG was tested, and the switch fluorescence ratio was 1.03 ± 0.015. TGAGAGAGGG showed a switch fluorescence ratio of 0.983 ± 0.012. TTAGATTGGT showed a switch fluorescence ratio of 0.99 ± 0.033. ATGGCGATTG was tested, and the switch fluorescence ratio was 0.996 ± 0.0078. Work on GGAATGAGGA yielded a switch fluorescence ratio of 0.99242 ± 0.0004. For ATAAAGCTTA, the switch fluorescence ratio was 1 ± 0.03. In the case of TTTAGCGGGG, the switch fluorescence ratio is reported as 1.01 ± 0.016. AGATGGCATG showed a switch fluorescence ratio of 0.987 ± 0.019. With TGATGTTTGA the switch fluorescence ratio was 0.9947 ± 0.0094. AGGCATTTTA showed a switch fluorescence ratio of 0.983 ± 0.053. In the case of CTGCGGTAAA, the switch fluorescence ratio is reported as 0.96953 ± 0.00082. Work on CCAGATAACG yielded a switch fluorescence ratio of 1.04 ± 0.022. TCAACAGGGA gave a switch fluorescence ratio of 1.08 ± 0.15. In the case of CGCTGATGGG, the switch fluorescence ratio is reported as 1.01 ± 0.071. CCAGTGTATA was tested, and the switch fluorescence ratio was 1.002 ± 0.0013. In the case of TGTATTAAGG, the switch fluorescence ratio is reported as 1.01 ± 0.036. GTTGTTAAAT showed a switch fluorescence ratio of 1.011 ± 0.0047. ATGGGAGTAG was tested, and the switch fluorescence ratio was 0.9562 ± 0.0062. AACGGGTTGG gave a switch fluorescence ratio of 0.998 ± 0.047. With TTTTGCGGGA the switch fluorescence ratio was 1.01 ± 0.057. For GGATCCGTTG, the switch fluorescence ratio was 0.978 ± 0.021. For TTTTGCAGGA, the switch fluorescence ratio was 1.05 ± 0.14. TTAGTGTACT gave a switch fluorescence ratio of 1.07 ± 0.038. Sequence TTACTTGGGT has a switch fluorescence ratio of 1.02 ± 0.052. For GACAGGGGGG, the switch fluorescence ratio was 1.01 ± 0.085. With GGGTGTGCTT the switch fluorescence ratio was 1.04 ± 0.029. Work on CGAGGATTTG yielded a switch fluorescence ratio of 0.994 ± 0.018. AGAGGCGCGT gave a switch fluorescence ratio of 0.946 ± 0.036. GGGGAACGTT was tested, and the switch fluorescence ratio was 0.947 ± 0.049. CAGAAGCGAT was tested, and the switch fluorescence ratio was 1.33 ± 0.025. TGCAAAATTT showed a switch fluorescence ratio of 0.995 ± 0.018. ATGTGGGGAG showed a switch fluorescence ratio of 0.9941 ± 0.002. Work on ATATATGAAA yielded a switch fluorescence ratio of 0.998 ± 0.024. Work on GTTGGGGGGG yielded a switch fluorescence ratio of 1.01 ± 0.03. For GTATTTTTTG, the switch fluorescence ratio was 0.9958 ± 0.0069. Sequence AATAGAATTT has a switch fluorescence ratio of 0.997 ± 0.035. Work on ATTGAAAAAT yielded a switch fluorescence ratio of 0.983 ± 0.012. AAACATGGTG was tested, and the switch fluorescence ratio was 1.03 ± 0.022. With ATGCCCGGGC the switch fluorescence ratio was 0.988 ± 0.017. With GGGAGAGAAC the switch fluorescence ratio was 0.992 ± 0.012. With TTCTAGTAA the switch fluorescence ratio was 0.998 ± 0.021. Sequence CAGAAAATGG has a switch fluorescence ratio of 1 ± 0.012. CCTCTATTCT showed a switch fluorescence ratio of 1.1 ± 0.026. In the case of GTTTTTTTTG, the switch fluorescence ratio is reported as 0.999 ± 0.029. Work on AGTAAAGCAG yielded a switch fluorescence ratio of 1 ± 0.055. TTGGGTGGGG was tested, and the switch fluorescence ratio was 1 ± 0.049. CTTTTTTGTT was tested, and the switch fluorescence ratio was 1 ± 0.021. In the case of TTGTGTTTAC, the switch fluorescence ratio is reported as 1.07 ± 0.11. Sequence GAATGGTCCC has a switch fluorescence ratio of 1.02 ± 0.012. Sequence CCCGATTTTT has a switch fluorescence ratio of 0.993 ± 0.017. For CAGGAAAATT, the switch fluorescence ratio was 1 ± 0.032. For TAATATTTAG, the switch fluorescence ratio was 0.9863 ± 0.0031. Work on CGTAAATGTG yielded a switch fluorescence ratio of 0.9668 ± 0.0066. Sequence GTGATCTAGG has a switch fluorescence ratio of 1.04 ± 0.033. In the case of GCTTTAGCAG, the switch fluorescence ratio is reported as 1.03 ± 0.02. CTAAGGGGCT was tested, and the switch fluorescence ratio was 1.01 ± 0.015. ATTCGTAGGG gave a switch fluorescence ratio of 1.01 ± 0.012. TTCGGGCGTG was tested, and the switch fluorescence ratio was 0.994 ± 0.024. AGACGTGTGT showed a switch fluorescence ratio of 1.023 ± 0.0088. Work on TAGAGGTAAT yielded a switch fluorescence ratio of 1.01 ± 0.022. GAATATGGGT gave a switch fluorescence ratio of 0.995 ± 0.015. Sequence GATCAAGGGA has a switch fluorescence ratio of 1.03 ± 0.052. In the case of TTTAGCTTTA, the switch fluorescence ratio is reported as 0.9735 ± 0.0092. In the case of GGGAACGTGT, the switch fluorescence ratio is reported as 0.997 ± 0.019. TAATGAAAAA showed a switch fluorescence ratio of 1 ± 0.039. CGGTACAAGT showed a switch fluorescence ratio of 1 ± 0.032. Sequence TCTAGGATGG has a switch fluorescence ratio of 0.962 ± 0.023. CGGGTGCTTT showed a switch fluorescence ratio of 1.05 ± 0.013. GTGTTTTATA gave a switch fluorescence ratio of 0.977 ± 0.026. GTTTTTCCTG gave a switch fluorescence ratio of 0.981 ± 0.055. AATTGGGATT was tested, and the switch fluorescence ratio was 0.998 ± 0.026. With GCGATATATG the switch fluorescence ratio was 0.9775 ± 0.0032. GATGGCGTAT gave a switch fluorescence ratio of 0.98 ± 0.031. In the case of AAGAGGCCCC, the switch fluorescence ratio is reported as 0.9991 ± 0.0067. With ATTAGAAAAG the switch fluorescence ratio was 0.991 ± 0.03. In the case of TGTTCCGACT, the switch fluorescence ratio is reported as 1.05 ± 0.051. With TTGGAGGGGA the switch fluorescence ratio was 1.01 ± 0.018. With TGGGATAGGC the switch fluorescence ratio was 0.991 ± 0.032. Sequence ATTGTGTACT has a switch fluorescence ratio of 1 ± 0.031. With AGACGGCTTG the switch fluorescence ratio was 1.01 ± 0.025. In the case of TTTATAAAGA, the switch fluorescence ratio is reported as 1.02 ± 0.059. With CTTCCGGAGG the switch fluorescence ratio was 1.9 ± 0.048. In the case of CAAAAAACGG, the switch fluorescence ratio is reported as 1.13 ± 0.23. Sequence TAACGCCGTG has a switch fluorescence ratio of 1.02 ± 0.029. GGAACCGGTA gave a switch fluorescence ratio of 1.02 ± 0.012. GCCGCATTGA was tested, and the switch fluorescence ratio was 2.01 ± 0.11. For TCGAGCATCA, the switch fluorescence ratio was 1.143 ± 0.01. TTTTTAGGAT showed a switch fluorescence ratio of 1.11 ± 0.17. In the case of CACTTAGGGG, the switch fluorescence ratio is reported as 1.01 ± 0.022. With AAAACGAAAT the switch fluorescence ratio was 1.02 ± 0.032. Work on CTTTTTTTGG yielded a switch fluorescence ratio of 1 ± 0.022. Sequence ACTTCTAGCG has a switch fluorescence ratio of 1.02 ± 0.072. In the case of TGGGGGCTGG, the switch fluorescence ratio is reported as 0.991 ± 0.013. For TTTGGCCTAG, the switch fluorescence ratio was 1.02 ± 0.041. GTAGTCTAGA showed a switch fluorescence ratio of 0.965 ± 0.024. Work on GGAAAGAAGG yielded a switch fluorescence ratio of 1 ± 0.032. With AGTAGTTGGG the switch fluorescence ratio was 0.967 ± 0.037. Sequence AGAAGTTTTA has a switch fluorescence ratio of 1.01 ± 0.075. In the case of CAAGGGGGGC, the switch fluorescence ratio is reported as 0.972 ± 0.03. TTTTTTCGTC was tested, and the switch fluorescence ratio was 1.02 ± 0.011. With ACAATGAGTG the switch fluorescence ratio was 1.003 ± 0.0011. With AGTTCGGCGT the switch fluorescence ratio was 0.999 ± 0.029. For ATTGGCGTAT, the switch fluorescence ratio was 0.987 ± 0.026. TAGTTTCTAC showed a switch fluorescence ratio of 0.992 ± 0.033. ATAGTATAGA showed a switch fluorescence ratio of 1.01 ± 0.047. Work on GCAGTTGGTG yielded a switch fluorescence ratio of 0.958 ± 0.043. For ACAGCTGGCG, the switch fluorescence ratio was 1.05 ± 0.024. With ACACACGGTC the switch fluorescence ratio was 1.34 ± 0.1. With GATTGGGCTC the switch fluorescence ratio was 1.02 ± 0.036. Sequence GTTGCAGGTG has a switch fluorescence ratio of 2.06 ± 0.057. With CGTTACGAGC the switch fluorescence ratio was 1.04 ± 0.059. Sequence CAAATTTGCT has a switch fluorescence ratio of 0.967 ± 0.022. AGTGGTTATT showed a switch fluorescence ratio of 0.989 ± 0.032. Work on TTGTTCGCTT yielded a switch fluorescence ratio of 1.03 ± 0.025. Sequence AAGTTGCACC has a switch fluorescence ratio of 1 ± 0.067. With CGTATTATTG the switch fluorescence ratio was 1.01 ± 0.02. Work on GAGGGAGGAG yielded a switch fluorescence ratio of 1 ± 0.029. With TATAAGTATA the switch fluorescence ratio was 1.02 ± 0.011. Work on TTGAAATAGG yielded a switch fluorescence ratio of 1.03 ± 0.011. In the case of CTGAGTCAAT, the switch fluorescence ratio is reported as 2.23 ± 0.042. For TGTAATTACA, the switch fluorescence ratio was 1.003 ± 0.0061. For TCAAGGGTGA, the switch fluorescence ratio was 1.03 ± 0.022. With GGCAGGAAAG the switch fluorescence ratio was 1 ± 0.011. For CCTATCACAA, the switch fluorescence ratio was 3.47 ± 0.46. For AAGGTTCTGA, the switch fluorescence ratio was 0.981 ± 0.016. With ATGTGTCGCG the switch fluorescence ratio was 0.9917 ± 0.0045. Sequence TGAAGTAACA has a switch fluorescence ratio of 1.06 ± 0.038. GAATTTTGTA gave a switch fluorescence ratio of 0.984 ± 0.041. With ACATTGGAGG the switch fluorescence ratio was 0.986 ± 0.025. GAACATCTCG gave a switch fluorescence ratio of 0.993 ± 0.035. For GCTTGTGCTG, the switch fluorescence ratio was 0.978 ± 0.053. In the case of TAGCCATTGG, the switch fluorescence ratio is reported as 1.05 ± 0.081. Sequence GGGAAAGGGG has a switch fluorescence ratio of 1.01 ± 0.02. With GACGTTATGG the switch fluorescence ratio was 1.04 ± 0.016. Sequence GACATGAGGG has a switch fluorescence ratio of 1 ± 0.071. Sequence AATGGTTTGC has a switch fluorescence ratio of 1.13 ± 0.23. With GATGTTTGGT the switch fluorescence ratio was 0.99 ± 0.021. In the case of ACGGTAGAAA, the switch fluorescence ratio is reported as 1.01 ± 0.012. Sequence GGGGTGGTAG has a switch fluorescence ratio of 1.01 ± 0.012. With AATTGGATGT the switch fluorescence ratio was 1.01 ± 0.021. TTTTGGATGC showed a switch fluorescence ratio of 1.05 ± 0.045.
